Experimental data taken from article PMC9352719, “Interaction between transcribing RNA polymerase and topoisomerase I prevents R-loop formation in E. coli”.

How the values were obtained:
[1] = target: T1, EcTopoI (topoisomerase I) (Escherichia coli DY330, UniProt P06612 1-865); assay: EMSA; 6 mM Mg2+; EMSA: 10 mM Tris-HCl pH 7.5, 50 mM NaCl, 6 mM MgCl2, 37 C 10 min; MST: same plus 0.05% Tween-20, 22 C; settings: protein: recombinant; label: 5'-Cy5; single strand
[2] = target: T1, EcTopoI (topoisomerase I); assay: MST; 6 mM Mg2+; range for both random oligos; EMSA: 10 mM Tris-HCl pH 7.5, 50 mM NaCl, 6 mM MgCl2, 37 C 10 min; MST: same plus 0.05% Tween-20, 22 C; settings: protein: recombinant; label: 5'-Cy5; single strand
[3] = target: T1, EcTopoI (topoisomerase I); assay: competition; vs labeled Consensus R; about as efficient as Consensus R; EMSA: 10 mM Tris-HCl pH 7.5, 50 mM NaCl, 6 mM MgCl2, 37 C 10 min; MST: same plus 0.05% Tween-20, 22 C; settings: protein: recombinant; single strand

T1 sequence (P06612 whole entry): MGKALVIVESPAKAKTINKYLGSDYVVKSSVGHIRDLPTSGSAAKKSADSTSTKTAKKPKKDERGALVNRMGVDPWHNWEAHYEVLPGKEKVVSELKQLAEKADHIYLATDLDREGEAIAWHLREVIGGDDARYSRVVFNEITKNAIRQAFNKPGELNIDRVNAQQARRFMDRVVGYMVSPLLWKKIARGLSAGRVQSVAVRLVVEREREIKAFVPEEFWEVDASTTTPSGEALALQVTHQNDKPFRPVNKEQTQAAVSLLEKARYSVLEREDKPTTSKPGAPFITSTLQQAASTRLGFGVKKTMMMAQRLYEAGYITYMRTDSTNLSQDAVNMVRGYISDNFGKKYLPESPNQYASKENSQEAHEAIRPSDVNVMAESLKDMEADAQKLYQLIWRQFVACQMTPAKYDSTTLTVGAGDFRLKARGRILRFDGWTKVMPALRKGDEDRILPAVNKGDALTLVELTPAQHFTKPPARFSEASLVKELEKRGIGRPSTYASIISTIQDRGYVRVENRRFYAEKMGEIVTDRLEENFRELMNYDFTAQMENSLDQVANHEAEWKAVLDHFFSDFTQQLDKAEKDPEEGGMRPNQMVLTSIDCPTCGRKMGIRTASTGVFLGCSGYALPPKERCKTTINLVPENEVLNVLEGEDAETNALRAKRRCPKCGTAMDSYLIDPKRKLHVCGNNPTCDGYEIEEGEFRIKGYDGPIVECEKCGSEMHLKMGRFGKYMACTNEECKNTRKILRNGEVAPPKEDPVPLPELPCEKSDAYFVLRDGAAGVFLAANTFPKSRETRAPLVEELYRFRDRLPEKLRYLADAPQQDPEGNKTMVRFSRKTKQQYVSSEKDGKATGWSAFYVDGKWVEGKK

| Binder | Kd [1] [nM] | Kd [2] [nM] | further results |
| --- | --- | --- | --- |
| GCGTTTTTTTCTTCATTATTTTTGCG (ssDNA) [Consensus F] | 190 ± 87 | – | – |
| GCGCACGTAATCCGCAGTGCGGTGCG (ssDNA) [Random F] | – | ~324 | – |
| CGCAAAAAAAAAAAAAAAAAAAACGC (ssDNA) [Poly-A, unlabeled] | – | – | binding result [3]: binds |
| CGCAAAAATAATGAAGAAAAAAACGC (ssDNA) [Consensus R] | 207 ± 76 | – | – |
| CGCTCCGCACTGCGGATTACGTGCGC (ssDNA) [Random R] | – | ~324 | – |
